Assay results from the Immune Epitope Database (IEDB).

What was measured:
HLA-B*18:01 [1] = experiment: IEDB peptide-MHC binding, purified MHC/direct/fluorescence; filed as Kd, often an IC50 or EC50 that approximates it; ≥ and ≤ were set here for values at or beyond the usual limits of such assays
HLA-A*26:01 [2] = experiment: as above
HLA-A*02:01 [3] = experiment: as above
HLA-B*08:03 = experiment: as above; conditions: source organism: Francisella tularensis subsp. tularensis FSC033
HLA-A*31:01 = experiment: as above
HLA-A*69:01 [4] = experiment: as above
HLA-B*58:01 = experiment: as above
HLA-A*01:01 = experiment: as above
HLA-B*57:01 [5] = experiment: as above
HLA-A*68:02 [6] = experiment: as above
HLA-A*11:01 = experiment: as above
HLA-B*08:01 = experiment: as above
HLA-A*26:02 = experiment: IEDB peptide-MHC binding, purified MHC/competitive/fluorescence; filed as Kd, often an IC50 or EC50 that approximates it; ≥ and ≤ were set here for values at or beyond the usual limits of such assays; conditions: source organism: Francisella tularensis subsp. tularensis FSC198
HLA-B*15:01 [7] = experiment: as above
HLA-A*30:01 = experiment: as above; conditions: source organism: Francisella tularensis subsp. tularensis FSC198
HLA-A*02:03 = experiment: as above; conditions: source organism: Francisella tularensis subsp. tularensis FSC198
HLA-B*07:02 [8] = experiment: as above; conditions: source organism: Francisella tularensis subsp. tularensis FSC198
HLA-B*40:01 = experiment: IEDB peptide-MHC binding, purified MHC/direct/fluorescence; filed as Kd, often an IC50 or EC50 that approximates it; ≥ and ≤ were set here for values at or beyond the usual limits of such assays
HLA-B*48:01 = experiment: as above; conditions: source organism: Marburg virus - Musoke, Kenya, 1980
HLA-B*15:09 = experiment: as above; conditions: source organism: Ravn virus - Ravn, Kenya, 1987
HLA-B*07:02 [9] = experiment: as above
HLA-B*15:17 [10] = experiment: as above; conditions: source organism: Marburg virus - Musoke, Kenya, 1980
HLA-B*27:05 = experiment: as above
HLA-A*02:06 = experiment: IEDB peptide-MHC binding, purified MHC/competitive/fluorescence; filed as Kd, often an IC50 or EC50 that approximates it; ≥ and ≤ were set here for values at or beyond the usual limits of such assays; conditions: source organism: Orthomarburgvirus marburgense
HLA-A*02:01 [11] = experiment: as above
HLA-A*03:01 [12] = experiment: IEDB peptide-MHC binding, purified MHC/direct/fluorescence; filed as Kd, often an IC50 or EC50 that approximates it; ≥ and ≤ were set here for values at or beyond the usual limits of such assays
HLA-B*15:01 [13] = experiment: as above; conditions: source organism: Salmonella enterica subsp. enterica serovar Typhi
HLA-B*44:02 = experiment: as above; conditions: source organism: Salmonella enterica subsp. enterica serovar Typhi
HLA-A*24:03 = experiment: as above; conditions: source organism: Salmonella enterica subsp. enterica serovar Typhi
HLA-B*35:01 = experiment: as above; conditions: source organism: Salmonella enterica subsp. enterica serovar Typhi
HLA-B*18:01 [14] = experiment: IEDB peptide-MHC binding, purified MHC/competitive/fluorescence; filed as Kd, often an IC50 or EC50 that approximates it; ≥ and ≤ were set here for values at or beyond the usual limits of such assays
HLA-A*26:01 [15] = experiment: as above
HLA-A*03:01 [16] = experiment: as above; conditions: source organism: Pan troglodytes
HLA-B*46:01 = experiment: as above; conditions: source organism: Pan troglodytes
HLA-A*69:01 [17] = experiment: as above
HLA-B*57:01 [18] = experiment: as above
HLA-B*51:01 = experiment: as above
HLA-B*27:03 = experiment: as above
HLA-A*68:02 [19] = experiment: as above; conditions: source organism: Pan troglodytes
HLA-B*15:17 [20] = experiment: as above
HLA-B*39:01 = experiment: as above
HLA-C*15:02 = experiment: IEDB peptide-MHC binding, purified MHC/direct/fluorescence; filed as Kd, often an IC50 or EC50 that approximates it; ≥ and ≤ were set here for values at or beyond the usual limits of such assays; conditions: source organism: Four Corners hantavirus
HLA-A*02:16 = experiment: as above; conditions: source organism: Limestone Canyon virus
HLA-A*29:02 = experiment: as above; conditions: source organism: Limestone Canyon virus
HLA-A*02:12 = experiment: as above; conditions: source organism: Limestone Canyon virus
HLA-A*02:19 = experiment: as above; conditions: source organism: Limestone Canyon virus
[21] = source organism: Francisella tularensis subsp. holarctica LVS
[22] = source organism: Marburg virus - Musoke, Kenya, 1980
[23] = source organism: Ravn virus - Ravn, Kenya, 1987
[24] = source organism: Salmonella enterica subsp. enterica serovar Typhi
[25] = source organism: Pan troglodytes
[26] = source organism: Four Corners hantavirus

## EFKRRLKDL
HLA-B*18:01 [1]; [21]
  Kd: ≥ 20 µM
HLA-A*26:01 [2]; source organism: Francisella tularensis subsp. tularensis FSC033
  Kd: ≥ 20 µM
HLA-A*02:01 [3]; [21]
  Kd: ≥ 20 µM
HLA-B*08:03
  Kd: ≥ 20 µM
HLA-A*31:01; [21]
  Kd: ≥ 20 µM
HLA-A*69:01 [4]; [21]
  Kd: ≥ 20 µM
HLA-B*58:01; [21]
  Kd: ≥ 20 µM
HLA-A*01:01; [21]
  Kd: ≥ 20 µM
HLA-B*57:01 [5]; [21]
  Kd: ≥ 20 µM
HLA-A*68:02 [6]; [21]
  Kd: ≥ 20 µM
HLA-A*11:01; [21]
  Kd: ≥ 20 µM
HLA-B*08:01; [21]
  Kd: 0.0523 µM
HLA-A*26:02
  Kd: ≥ 20 µM
HLA-B*15:01 [7]; source organism: Francisella tularensis subsp. tularensis FSC198
  Kd: ≥ 20 µM
HLA-A*30:01
  Kd: ≥ 20 µM
HLA-A*02:03
  Kd: ≥ 20 µM
HLA-B*07:02 [8]
  Kd: ≥ 20 µM

## GEGSGARLL
HLA-B*18:01 [1]; [22]
  Kd: ≥ 20 µM
HLA-B*40:01; [22]
  Kd: 0.279 µM
HLA-B*48:01
  Kd: ≥ 20 µM
HLA-A*26:01 [2]; [23]
  Kd: ≥ 20 µM
HLA-A*31:01; [22]
  Kd: ≥ 20 µM
HLA-A*69:01 [4]; [22]
  Kd: ≥ 20 µM
HLA-B*15:09
  Kd: ≥ 20 µM
HLA-B*58:01; [22]
  Kd: ≥ 20 µM
HLA-A*01:01; [22]
  Kd: ≥ 20 µM
HLA-B*57:01 [5]; [22]
  Kd: ≥ 20 µM
HLA-A*68:02 [6]; [22]
  Kd: ≥ 20 µM
HLA-A*11:01; [22]
  Kd: ≥ 20 µM
HLA-B*07:02 [9]; [22]
  Kd: ≥ 20 µM
HLA-B*15:17 [10]
  Kd: ≥ 20 µM
HLA-B*08:01; [23]
  Kd: ≥ 20 µM
HLA-B*27:05; [22]
  Kd: ≥ 20 µM
HLA-A*02:06
  Kd: 1.14 µM
HLA-A*02:01 [11]; source organism: Orthomarburgvirus marburgense
  Kd: 4.69 µM

## LPLIVDTAA
HLA-B*40:01; [24]
  Kd: ≥ 20 µM
HLA-A*26:01 [2]; [24]
  Kd: ≥ 20 µM
HLA-A*02:01 [3]; [24]
  Kd: ≥ 20 µM
HLA-A*03:01 [12]; [24]
  Kd: ≥ 20 µM
HLA-A*31:01; [24]
  Kd: ≥ 20 µM
HLA-A*69:01 [4]; [24]
  Kd: ≥ 20 µM
HLA-B*15:01 [13]
  Kd: ≥ 20 µM
HLA-B*58:01; [24]
  Kd: ≥ 20 µM
HLA-A*01:01; [24]
  Kd: ≥ 20 µM
HLA-B*44:02
  Kd: ≥ 20 µM
HLA-A*24:03
  Kd: ≥ 20 µM
HLA-A*11:01; [24]
  Kd: ≥ 20 µM
HLA-B*35:01
  Kd: 0.00636 µM
HLA-B*07:02 [9]; [24]
  Kd: 5.75 µM
HLA-B*08:01; [24]
  Kd: 11.2 µM
HLA-B*27:05; [24]
  Kd: ≥ 20 µM

## FLFDRLTNG
HLA-B*18:01 [14]; [25]
  Kd: ≥ 20 µM
HLA-A*26:01 [15]; [25]
  Kd: ≥ 20 µM
HLA-A*02:01 [11]; [25]
  Kd: 0.0015 µM
HLA-A*03:01 [16]
  Kd: ≥ 20 µM
HLA-B*46:01
  Kd: ≥ 20 µM
HLA-A*69:01 [17]; [25]
  Kd: ≥ 20 µM
HLA-B*15:01 [7]; [25]
  Kd: ≥ 20 µM
HLA-B*57:01 [18]; [25]
  Kd: ≥ 20 µM
HLA-B*51:01; [25]
  Kd: ≥ 20 µM
HLA-B*27:03; [25]
  Kd: ≥ 20 µM
HLA-A*68:02 [19]
  Kd: ≥ 20 µM
HLA-B*15:17 [20]; [25]
  Kd: ≥ 20 µM
HLA-B*39:01; [25]
  Kd: ≥ 20 µM

## KARNIISPV
HLA-C*15:02
  Kd: 0.088 µM
HLA-A*02:16
  Kd: ≥ 20 µM
HLA-A*03:01 [12]; source organism: Limestone Canyon virus
  Kd: ≥ 20 µM
HLA-A*29:02
  Kd: ≥ 20 µM
HLA-A*02:12
  Kd: ≥ 20 µM
HLA-A*02:19
  Kd: ≥ 20 µM
HLA-B*07:02 [9]; source organism: Hantavirus Monongahela-3
  Kd: 0.107 µM
HLA-B*18:01 [14]; [26]
  Kd: ≥ 20 µM
HLA-A*26:01 [15]; [26]
  Kd: ≥ 20 µM
HLA-A*69:01 [17]; [26]
  Kd: ≥ 20 µM
HLA-B*15:01 [7]; [26]
  Kd: ≥ 20 µM
HLA-B*57:01 [18]; [26]
  Kd: ≥ 20 µM
HLA-B*51:01; [26]
  Kd: ≥ 20 µM
HLA-B*27:03; [26]
  Kd: ≥ 20 µM
HLA-B*15:17 [20]; [26]
  Kd: ≥ 20 µM
HLA-B*39:01; [26]
  Kd: ≥ 20 µM
